According to patent publication US20230183379A1 (INSERM INSTITUT NATIONAL DE LA SANT ET DE LA RECHERCHE M …, published 2023):
One block for each binder: values may come before it.

How the values were obtained:
[1] = biological target: T1, transferrin receptor 1 (TfR1), human (human, UniProt P02786 1-760); test: FACS on human Raji cells, anti-human IgG1-FITC
T1 construct: whole, on cells; always tested on cells; also called human TfR1; native TfR1

[2] = biological target: T2, mouse IL-6 (mouse, UniProt P08505 25-211); test: ELISA on adsorbed recombinant mouse IL-6, pH 7.4, 40 nM antibody
T2 construct: Bought recombinant protein; also called Recombinant mouse IL-6 (Peprotech, 216-16)
T2 sequence (looked up): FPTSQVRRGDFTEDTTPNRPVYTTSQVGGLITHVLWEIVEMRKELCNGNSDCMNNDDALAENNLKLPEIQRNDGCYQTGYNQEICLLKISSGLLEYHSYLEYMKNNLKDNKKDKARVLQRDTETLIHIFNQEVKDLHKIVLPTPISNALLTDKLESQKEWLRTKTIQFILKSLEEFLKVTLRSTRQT

[3] = biological target: T3, transferrin receptor 1 (TfR1), mouse (mouse, UniProt Q62351 1-763); test: FACS on mouse P815 cells, anti-human IgG1-FITC
T3 construct: whole, on cells; also called mouse TfR1

[4] = biological target: T1, transferrin receptor 1 (TfR1), human; test: cell-based or functional assay
[5] = biological target: T1, transferrin receptor 1 (TfR1), human; test: FACS on Raji cells at 4 °C
Procedure: All incubation steps were done on ice. Raji cells (5×10^5 cells) were resuspended in 100 μL of FACS buffer [PBS, 1% FBS] containing various concentrations of the primary antibody for 1 h, washed twice with FACS buffer, and then incubated with the suitable fluorescent secondary antibody. After a final wash, cells were analyzed by FACS. The apparent affinity was determined using the GraphPad software.

[6] = biological target: T3, transferrin receptor 1 (TfR1), mouse; test: FACS on mouse P815 cells at 4 °C
[7] = biological target: T1, transferrin receptor 1 (TfR1), human; test: FACS on Raji cells at 4 °C, anti-human IgG (Fc specific)-FITC

T1 sequence (P02786 whole entry): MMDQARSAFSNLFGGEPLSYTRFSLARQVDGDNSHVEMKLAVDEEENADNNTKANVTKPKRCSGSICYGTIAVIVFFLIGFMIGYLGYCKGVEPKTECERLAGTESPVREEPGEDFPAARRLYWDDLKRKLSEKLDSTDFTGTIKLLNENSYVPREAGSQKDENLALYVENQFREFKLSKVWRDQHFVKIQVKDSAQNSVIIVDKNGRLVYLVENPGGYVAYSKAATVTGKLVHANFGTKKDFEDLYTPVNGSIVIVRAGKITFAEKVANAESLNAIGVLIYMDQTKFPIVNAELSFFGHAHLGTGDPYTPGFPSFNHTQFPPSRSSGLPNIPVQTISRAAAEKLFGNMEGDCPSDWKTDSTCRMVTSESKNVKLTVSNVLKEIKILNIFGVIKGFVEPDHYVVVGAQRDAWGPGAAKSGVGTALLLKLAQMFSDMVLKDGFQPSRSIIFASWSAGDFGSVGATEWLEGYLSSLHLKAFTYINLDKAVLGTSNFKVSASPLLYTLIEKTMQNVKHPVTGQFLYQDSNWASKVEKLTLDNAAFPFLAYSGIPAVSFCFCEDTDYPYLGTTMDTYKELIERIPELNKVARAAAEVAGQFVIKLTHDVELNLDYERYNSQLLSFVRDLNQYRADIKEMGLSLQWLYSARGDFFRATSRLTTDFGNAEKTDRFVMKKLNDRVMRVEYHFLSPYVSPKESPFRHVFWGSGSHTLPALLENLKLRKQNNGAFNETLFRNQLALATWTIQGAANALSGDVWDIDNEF
T3 sequence (Q62351 whole entry): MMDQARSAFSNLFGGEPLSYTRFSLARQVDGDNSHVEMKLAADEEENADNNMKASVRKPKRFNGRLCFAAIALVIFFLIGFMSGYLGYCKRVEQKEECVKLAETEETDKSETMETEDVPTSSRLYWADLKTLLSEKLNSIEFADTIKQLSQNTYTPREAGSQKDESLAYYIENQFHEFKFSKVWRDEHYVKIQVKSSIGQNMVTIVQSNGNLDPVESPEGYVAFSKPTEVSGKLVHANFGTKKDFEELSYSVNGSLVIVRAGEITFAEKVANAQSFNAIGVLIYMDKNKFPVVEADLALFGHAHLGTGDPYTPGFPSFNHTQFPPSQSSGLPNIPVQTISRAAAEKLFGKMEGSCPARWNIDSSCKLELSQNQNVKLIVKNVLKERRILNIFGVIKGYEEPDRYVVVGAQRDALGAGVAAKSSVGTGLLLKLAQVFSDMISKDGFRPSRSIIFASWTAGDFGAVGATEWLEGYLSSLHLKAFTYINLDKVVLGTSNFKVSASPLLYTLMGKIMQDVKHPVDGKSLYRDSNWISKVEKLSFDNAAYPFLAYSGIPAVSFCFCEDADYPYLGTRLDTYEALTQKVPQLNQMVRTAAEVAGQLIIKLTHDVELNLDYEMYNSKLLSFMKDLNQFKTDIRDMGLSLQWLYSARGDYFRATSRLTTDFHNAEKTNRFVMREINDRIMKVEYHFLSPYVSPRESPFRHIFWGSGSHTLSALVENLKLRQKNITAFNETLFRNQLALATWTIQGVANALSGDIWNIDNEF

- binding result [1]: binds
B1: F2 scFv2-Fc (Fc fusion)
chain: QVQLQQSGGGVVQPGGSLRLSCAASEFTFSASGMHWVRQAPGKGLEWMAFIAYDGNQKFYADSVKGRFTISRDNSKNTLYLQMDSLRGEDTAVYYCAKEMQREGYFDYWGQGTLVTVSSGGGGSGGGGSGGGGSNFMLTQDPAVSVALGQTVRITCQGDSLRSYYASWYQQKPGQAPVLVIYGKNNRPSGIPDRFSGSKSGNSASLDISGLQSEDEADYYCATWDDNLSGPIFGGGTKVTVLG
notes: Bivalent (scFv)2-Fc; also called F2-Fc; not shown: Fc fragment of human IgG1 (pFUSE-hFc2(IL2ss) vector)

- binding result [1]: binds
B2: G9 scFv2-Fc (Fc fusion)
chain: QVQLVESGGGLVEPGGSLRLSCAASGFTFSNYAINWVRQAPGKGLEWVANIHHDGNGKYYVDSVEGRFTISRDNAKNSLYLQMDSLRAEDTAIYYCARDGYGGYLDLWGQGTLVTVSSGGGGSGGGGSGGGGSSELTQDPAVSVALGQTVRITCQGDSLRSYYASWYQQKPGQAPVLVIYGKNNRPSGIPDRFSGSGSGNTASLTITGAQAEDEADYYCAAWDDSLSGPVFGGGTKVTVLG
notes: Bivalent (scFv)2-Fc; also called G9-Fc; not shown: Fc fragment of human IgG1 (pFUSE-hFc2(IL2ss) vector)

- binding result [2]: binds
B3: VH4 anti-IL-6 human IgG1 (antibody, V domains shown)
VH: EVQLVQSGGGVVQPGESLRLSCAASGFTFSSYSMNWVRQAPGKGLEWVSVIYSGGSTYYADSVKGRFTISRDNSKNTLYLQMNSLRAEDTAVYYCAREVYHSSGYDDAFDIWGRGTMVTVSS
VL: DIQMTQSPSTLSASIGDRVTITCRASEGIYHWLAWYQQKPGKAPKLLIYKASSLASGAPSRFSGSGSGTDFTLTISSLQPDDFATYYCQQYSNYPLTFGGGTKLEIK
notes: Human IgG1; also called VH4-IgG1; anti-IL-6 VH4

- binding result [1]: binds
B4: H9 scFv2-Fc (Fc fusion)
chain: QVQLAESGGGLVKPGGSLRLSCAASGFTFSDYYMSWIRQAPGKGLEWVSYISTSGSSIYYVDSVKGRFTISRDNAKNSLYLQMDSLRDDDTAVYYCARDLHGDYAFDSWGQGTLVTVSSGGGGSGGGGSGGGGSSELTQDPAVSVALGQTVRITCQGDSLRSYYASWYQQKPGQAPVLVIYGKNNRPSGIPDRFSGSKSGNSASLDISGLQSEDEADYYCATWDDNLSGPIFGGGTKVTVLG
notes: Bivalent (scFv)2-Fc; also called H9-Fc; not shown: Fc fragment of human IgG1 (pFUSE-hFc2(IL2ss) vector)

- binding result [1]: binds
- binding result [3]: binds
B5: F12 scFv2-Fc (Fc fusion)
chain: QVQLQESGGGLVQPGGSLRLSCAASGFSFNTYTMHWVRQAPGKGLEWVADIAYDGSTKYYADSVKGRFTISRDNAKNSLYLQMNSLRAEDTAVYYCARDAVAGEGYFDLWGRGTLVTVSSGGGGSGGGGSGGGGSQSALTQDPAVSVALGQTVRITCQGDSLRSYYASWYQQLPGTAPKLLIYRNNQRPSGVPDRFSGSKSGTSASLAISGLRSEDEADYYCAAWDDSLSAWVFGGGTKLTVLGA
notes: Bivalent (scFv)2-Fc; also called F12-Fc; not shown: Fc fragment of human IgG1 (pFUSE-hFc2(IL2ss) vector)

B6: H7-scFv2 (50 kD dimeric (scFv)2 H7 antibody) (scFv)
scFv: QVQLQESGGGVVQPGRSLRLSCAASRFTFSSYAMHWVRQAPGKGLEWVAVISYDGSNKYYADSVKGRFTISRDNSKNTLYLQMNSLRAEDTAVYYCARDLSGYGDYPDYWGQGTLVTVSSGGGGSGGGGSGGGGSSELTQDPAVSVALGQTVRITCQGDSLRSYYASWYQQKPGQAPVLVMYGRNERPSGVPDRFSGSKSGTSASLAISGLQPEDEANYYCAGWDDSLTGPVFGGGTKLTVLG
- ERY-1 cell viability inhibition, IC50 [4]: 2 nM

- EC50 [5]: 30.1 nM
B7: scFv-Fc bispecific antibody (anti-TfR1 scFv / anti-IL-6 scFv, knob into hole Fc) (bispecific antibody)
chain 1: B6 scFv
chain 2: EVQLVQSGGGVVQPGESLRLSCAASGFTFSSYSMNWVRQAPGKGLEWVSVIYSGGSTYYADSVKGRFTISRDNSKNTLYLQMNSLRAEDTAVYYCAREVYHSSGYDDAFDIWGRGTMVTVSSGGGGSGGGGSGGGGSDIQMTQSPSTLSASIGDRVTITCRASEGIYHWLAWYQQKPGKAPKLLIYKASSLASGAPSRFSGSGSGTDFTLTISSLQPDDFATYYCQQYSNYPLTFGGGTKLEIK

B8: H7-scFv (monovalent) (scFv)
scFv: B6 scFv
- ERY-1 cell viability inhibition, IC50 [4]: 200 nM

- EC50 [6]: 0.8 nM
B9: H7 scFv2-Fc (H7-Fc) (Fc fusion)
chain: B6 scFv
notes: Bivalent 100 kD (scFv)2-Fc made in HEK-293 T cells; not shown: Fc fragment of human IgG1 (pFUSE-hFc2(IL2ss) vector)

- binding result [3]: no binding
B10: H7-IgG1 (full length human IgG1 anti-TfR1) (antibody, V domains shown)
VH: QVQLQESGGGVVQPGRSLRLSCAASRFTFSSYAMHWVRQAPGKGLEWVAVISYDGSNKYYADSVKGRFTISRDNSKNTLYLQMNSLRAEDTAVYYCARDLSGYGDYPDYWGQGTLVTVSS
VL: SELTQDPAVSVALGQTVRITCQGDSLRSYYASWYQQKPGQAPVLVMYGRNERPSGVPDRFSGSKSGTSASLAISGLQPEDEANYYCAGWDDSLTGPVFGGGTKLTVLG
notes: also called H7-anti-TfR1 IgG1

- binding result [3]: no binding
B11: C32-IgG1 (antibody, V domains shown)
VH: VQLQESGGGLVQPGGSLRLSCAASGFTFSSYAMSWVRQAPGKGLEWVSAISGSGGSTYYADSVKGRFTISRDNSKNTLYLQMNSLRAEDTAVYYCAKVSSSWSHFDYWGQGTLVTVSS
VL: DVVMTQSPSTLSASVGDRVTITCRASQYISNWLAWYQQKPGKAPKLLIYKASSLESGVPSRFSGSGSGTEFTLTISSLQPEDFATYYCQESYNTPLFTFGPGTKLEIKR
notes: Full length human IgG1; also called C32 (IgG1 format)

- EC50 [7]: 1 nM
B12: F12-IgG1 (IgG1 anti-TfR1 F12 antibody) (antibody, V domains shown)
VH: QVQLQESGGGLVQPGGSLRLSCAASGFSFNTYTMHWVRQAPGKGLEWVADIAYDGSTKYYADSVKGRFTISRDNAKNSLYLQMNSLRAEDTAVYYCARDAVAGEGYFDLWGRGTLVTVSS
VL: QSALTQDPAVSVALGQTVRITCQGDSLRSYYASWYQQLPGTAPKLLIYRNNQRPSGVPDRFSGSKSGTSASLAISGLRSEDEADYYCAAWDDSLSAWVFGGGTKLTVLG
notes: Human IgG1; Produced as monoclonal control beside the tetravalent BsAb; also called F12 (anti TfR1 Human IgG1); parental mAb anti-TfR1 F12
- viability of Raji cells, 3 days, IC50 [4]: 0.8 nM
- viability of XG6 and XG7 cells in 1% FCS, 3 days, IC50 of the combination F12 + VH4 [4]: 1 nM
- viability of XG6 cells, 5 days, IC50 [4]: 4 nM
